B1: peptide A08 (peptide)
peptide: GRPGRRGRPGLKG
notes: peptide from the collagen like region (CLR) of the C1q-A chain; Biotinylated and nonbiotinylated peptides were synthesized; also called C1qA08; source: synthetic peptide (GenScript, >95% purity)
B2: peptide B78 (peptide)
peptide: PGKVGPKGPMGPK
notes: peptide from the collagen like region (CLR) of the C1q-B chain; Biotinylated and nonbiotinylated peptides were synthesized; source: synthetic peptide (GenScript, >95% purity)
B3: peptide 35-47 of mCRP (peptide)
peptide: VCLHFYTELSSTR
notes: peptide 35-47 derived from mCRP (C-reactive protein); Biotinylated and nonbiotinylated peptides were synthesized; also called a.a.35-47; mCRP a.a.35-47; source: synthetic peptide (GenScript, >95% purity)
B4: monomeric CRP (mCRP) (natural protein, UniProt P02741 19-224, looked up)
chain: QTDMSRKAFVFPKESDTSYVSLKAPLTKPLKAFTVCLHFYTELSSTRGYSIFSYATKRQDNEILIFWSKDIGYSFTVGGSEILFEVPEVTVAPVHICTSWESASGIVEFWVDGKPRVRKSLKKGYTVGAEASIILGQEQDSFGGNFEGSQSLVGDIGNVNMWDFVLSPDEINTIYLGGPFSPNVLNWRALKYEVQGEVFTKPQLWP
notes: C-reactive protein, monomeric (dissociated, denatured) form; Same protein in all assays: purified mCRP in solution or coated on plates; for SPR with the C1q peptides pentameric CRP was coupled to the chip and turned into mCRP by urea/EDTA, because mCRP precipitated in acetate buffer; also called monomeric C-reactive protein; urea-denatured mCRP; source: urea-denatured mCRP on the microplate; on …
B5: peptide 199-206 of mCRP (peptide)
peptide: FTKPQLWP
notes: peptide 199-206 derived from mCRP (C-reactive protein); Biotinylated and nonbiotinylated peptides were synthesized; also called a.a.199-206; source: synthetic peptide (GenScript, >95% purity)

Legend:
monomeric CRP (mCRP) = biological target: B4; test: SPR; Biacore T200; CRP immobilised on a CM5 chip and denatured to mCRP by 200 s of 8 M urea and 5 mM EDTA; peptides A08, B78, A08-C injected at 30 μl/min in PBS with 0.05% P-20; conditions: both partners purified
[1] = biological target: T1, human complement component C1q (human, UniProt P02745 23-245; P02746 28-253; P02747 29-245); test: SPR; Biacore T200; C1q coupled to a CM5 chip; mCRP or peptides a.a.35-47, a.a.199-206 injected at 30 μl/min in PBS with 0.05% P-20; steady-state curve for a.a.35-47; conditions: both partners purified
T1 construct: complement C1q, A chain, human; complement C1q, B chain, human; complement C1q, C chain, human; also called human C1q; copies: 6 + 6 + 6
T1 sequence (P02745 23-245, chain 1 of 3): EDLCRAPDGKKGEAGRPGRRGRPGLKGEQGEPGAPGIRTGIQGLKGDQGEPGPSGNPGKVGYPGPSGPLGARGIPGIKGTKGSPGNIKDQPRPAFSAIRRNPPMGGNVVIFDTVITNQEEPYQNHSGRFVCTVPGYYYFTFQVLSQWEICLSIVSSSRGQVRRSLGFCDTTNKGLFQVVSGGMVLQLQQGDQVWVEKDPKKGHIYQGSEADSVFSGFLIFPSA
T1 sequence (P02746 28-253, chain 2 of 3): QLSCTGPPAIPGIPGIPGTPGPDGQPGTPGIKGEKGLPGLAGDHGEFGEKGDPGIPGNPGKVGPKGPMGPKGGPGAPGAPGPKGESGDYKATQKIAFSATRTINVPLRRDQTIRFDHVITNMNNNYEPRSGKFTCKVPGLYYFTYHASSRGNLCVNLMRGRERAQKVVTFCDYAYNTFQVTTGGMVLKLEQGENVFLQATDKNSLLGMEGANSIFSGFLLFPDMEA
T1 sequence (P02747 29-245, chain 3 of 3): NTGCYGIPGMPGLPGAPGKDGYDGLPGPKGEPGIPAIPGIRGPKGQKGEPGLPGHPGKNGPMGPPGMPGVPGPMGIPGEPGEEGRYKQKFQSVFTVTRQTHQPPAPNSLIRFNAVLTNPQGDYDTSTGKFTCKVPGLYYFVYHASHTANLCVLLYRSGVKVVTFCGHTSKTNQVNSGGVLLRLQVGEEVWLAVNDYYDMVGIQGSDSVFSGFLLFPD

| Binder | Kd (monomeric CRP (mCRP)) [µM] | Kd [1] [nM] |
| --- | --- | --- |
| B1 | 4.7 | – |
| B2 | 3500 | – |
| B3 | – | 2940 |
| B4 | – | 0.0737 |
| B5 | – | 890000 |

From PMC10150958, “Combination of anti-C1qA08 and anti-mCRP a.a.35-47 antibodies is associated with renal prognosis of patients with lupus nephritis” (Frontiers in Immunology, 2023)
